Measurements: patent US9777044B2, “GLUT-1 as a receptor for HTLV envelopes and its uses” (CENTRE NATIONAL DE LA RECHERCHE SCIENTIFIQUE (CNRS), priority 2003, dated 2017)

Key:
[1] = target: T1, GLUT-3 (Homo sapiens, UniProt P11169); experiment: RBD binding to cells overexpressing GLUT-3
T1 construct: factor Xa cleavage site + 2x HA + His (pCHIX cassette) (C); expressed in transfected cells; host or cells: 293T cells
T1 sequence (P11169 1-496): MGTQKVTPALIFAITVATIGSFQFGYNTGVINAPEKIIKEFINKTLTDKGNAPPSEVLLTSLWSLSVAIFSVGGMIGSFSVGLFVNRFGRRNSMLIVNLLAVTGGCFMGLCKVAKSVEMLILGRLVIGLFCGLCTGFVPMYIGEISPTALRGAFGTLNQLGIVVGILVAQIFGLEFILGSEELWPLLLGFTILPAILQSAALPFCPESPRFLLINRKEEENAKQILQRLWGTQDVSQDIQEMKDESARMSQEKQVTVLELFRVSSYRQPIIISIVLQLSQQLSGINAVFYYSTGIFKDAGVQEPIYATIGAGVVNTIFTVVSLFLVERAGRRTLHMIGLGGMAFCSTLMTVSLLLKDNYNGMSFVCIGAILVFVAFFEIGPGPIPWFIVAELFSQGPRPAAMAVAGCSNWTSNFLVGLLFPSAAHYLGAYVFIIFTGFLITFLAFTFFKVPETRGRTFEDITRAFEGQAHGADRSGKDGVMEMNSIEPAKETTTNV
Text: In order to directly test the ability of HTLV envelopes to bind GLUT-1, we derived a tagged GLUT-1 expression vector and overexpressed this protein in HeLa cells. […] GLUT-3 is the closest isoform to GLUT-1, and transports glucose with kinetics similar to that of GLUT-1. Thus, we derived a tagged GLUT-3 expression vector. […] To determine if GLUT-1 transfected cells were directly responsible for the observed increased in H1RBD binding, we derived fluorescent tagged GLUT-1 and GLUT-3 to uniquevocally identity GLUT-overexpressing cells in the course of our FACS analysis. […] Consequently, we tested if HTLV glycoproteins directly interact with GLUT-1 proteins. To this end, we evaluated the ability of H1RBD to immunoprecipitate GLUT-1. […] Therefore, the GLUT-1 glucose transporter is an essential component of the HTLV envelope receptor.
(§1) Expression vectors. Full length envelope expression vectors for HTLV-1 (pCEL/2[Denesvre, 1995]) and Friend ecotropic MLV (pCEL/F [Denesvre, 1995]), have been previously described. For the HTLV-2 envelope, a fragment from pHTE2 [Rosenberg, 1998] encompassing the tax, rex and env genes and the 3′ LTR was inserted in the pCSI [Battini, 1999] vector (pCSIX.H2). […]
(§2) Binding assays. […] Binding was analyzed on a FACSCalibur (Becton Dickinson) and data analysis was performed using CellQuest (Becton Dickinson) and WinMDI (Scripps) softwares.

[2] = test system: 293T cells; experiment: Hexose uptake assay: 2-deoxyglucose; type: cell-based, human; details: transfected 293T cells vs control cells
Protocol: (§3) Assay of hexose uptake. 2-deoxy-D[1-^3H]glucose, D[U-^14C]fructose and 3-O-[^14C]methyl-D-glucose were obtained from Amersham. Hexose uptake assay were adapted from Harrison et al. 1991). After transfection, approximately 250,000 were seeded/well in 24-well plates. […] Uptake was initiated by adding labeled hexoses to a final concentration of 0.1 mM (2 μCi/ml for 2-2-deoxy-D[1-^3H]glucose and 0.2 μCi/ml for D[U-^14C]fructose and 3-O-[^14C]methyl-D-glucose) and cells were incubated for 5′ additional minutes. Cells were then resuspended in 500 μl cold serum-free glucose-free DMEM, wash one time in serum-free glucose-free DMEM, and solubilized in 400 μl of 0.1% SDS. 3 μl was used for Bradford normalization, while the rest was used for detection of either ^3H or ^14C by liquid scintillation in a Beckman counter.

[3] = test system: MCT1 and CD147; experiment: RBD binding upon overexpression of MCT1 and CD147; parameters: species or system human
Text: Extracellular lactate accumulates in cell cultures following its transport across cellular membranes by the MCT1 monocarboxylate transporter [Garcia, 1994]. Because HTLV and MLV share a common organization of the extracellular envelope [Kim, 2000] and the receptors for MLV Env are multispanning metabolite transporters [Overbaugh, 2001], we assessed whether the HTLV RBD bound to MCT1. Moreover, similar to our previous data concerning expression of the HTLV receptor on T cells [Manel, 2003], expression of MCT1 chaperone CD147 [Kirk, 2000] increases during T cell activation [Kasinrerk, 1992].
as §1, §2

[4] = test system: 293T cells; experiment: Hexose uptake assay: fructose; type: cell-based, human; details: transfected 293T cells
Protocol: as §3

[5] = test system: human primary hepatocytes; experiment: RBD binding on human primary hepatocytes

B1: H1RBD: first 215 residues of HTLV-1 SU fused to a C-terminal rabbit IgG Fc tag (rFc) (protein)
chain: DYSPSCCTLTIGVSSYHSKPCNPAQPVCSWTLDLLALSADQALQPPCPNLVSYSSYHATYSLYLFPHWIKKPNRNGGGYYSASYSDPCSLKCPYLGCQSWTCPYTGAVSSPYWKFQQDVNFTQEVSRLNINLHFSKCGFPFSLLVDAPGYDPIWFLNTEPSQLPPTAPPLLPHSNLDHILEPSIPWKSKLLTLVQVDVPRDCGCKPCICTVPEVSSVFIFPPKPKDVLTITLTPKVTCVVVDISKDDPEVQFSWFVDDVEVHTAQTQPREEQFNSTFRSVSELPIMHQDWLNGKEFKCRVNSAAFPAPIEKTISKTKGRPKAPQVYTIPPPKEQMAKDKVSLTCMITDFFPEDITVEWQWNGQPAENYKNTQPIMDTDGSYFVYSKLNVQKSNWEAGNTFTCSVLHEGLHNHHTEKSLSHSPGK
binding upon GLUT-3 overexpression ([1]; 293T cells, tagged GLUT-3): did not induce any increase
H1RBD binding to cells overexpressing GLUT-3-DsRed2 ([1]; fluorescent tagged GLUT-3, FACS analysis): no effect
decrease in 2-deoxyglucose uptake [2]: approximately 4 fold
H1RBD binding upon separate and combined overexpression of MCT1 and CD147 [3]: did not result in increased H1RBD binding
Fructose uptake [4]: not altered
binding to human primary hepatocytes [5]: unable to detect H1RBD binding
